Read-outs that look alike come from different tables or passages of the source. Starred links: 1 amine or outer side, 2 acyl side, 3 side chain; linkers in the order of their positions; H or OH if unused. Positions of bridges follow the written chain, without caps; N, C: chain ends. Non-standard residues stand in square brackets, D forms with d. No end group written: not given here. Phe(4-OMe) = COc1ccc(C[C@H](N[*:1])C(=O)[*:2])cc1; Phe(F5) = N[C@@H](Cc1c(F)c(F)c(F)c(F)c1F)C(=O)O; Bpa = N[C@@H](Cc1ccc(C(=O)c2ccccc2)cc1)C(=O)O; Ser(Bzl) = O=C([C@H](COCc1ccccc1)N[*:1])[*:2]; Tyr(3-Cl) = N[C@@H](Cc1ccc(O)c(Cl)c1)C(=O)O; Bip = N[C@@H](Cc1ccc(-c2ccccc2)cc1)C(=O)O; Tyr(3-F) = N[C@@H](Cc1ccc(O)c(F)c1)C(=O)O; Tyr(3-I) = N[C@@H](Cc1ccc(O)c(I)c1)C(=O)O; Phe(3-OMe) = COc1cccc(C[C@H](N)C(=O)O)c1; Phe(3-Me) = Cc1cccc(C[C@H](N)C(=O)O)c1; 2Nal = N[C@@H](Cc1ccc2ccccc2c1)C(=O)O; Hyp = O=C(O)[C@@H]1C[C@@H](O)CN1; hPhe = N[C@@H](CCc1ccccc1)C(=O)O; 2Pal = N[C@@H](Cc1ccccn1)C(=O)O; 4Pal = N[C@@H](Cc1ccncc1)C(=O)O; NDecylGly = CCCCCCCCCCNCC(=O)O; Phg = N[C@H](C(=O)O)c1ccccc1; Ad = adenosine base unit; Gu = guanosine base unit; Dht = not defined here; Taz = not defined here; Inp = O=C(O)C1CCNCC1
T1: DD(E) fragment of fibrin
T1 chain 1: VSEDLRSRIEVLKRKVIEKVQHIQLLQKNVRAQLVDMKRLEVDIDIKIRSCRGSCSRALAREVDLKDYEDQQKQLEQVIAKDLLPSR
T1 chain 2: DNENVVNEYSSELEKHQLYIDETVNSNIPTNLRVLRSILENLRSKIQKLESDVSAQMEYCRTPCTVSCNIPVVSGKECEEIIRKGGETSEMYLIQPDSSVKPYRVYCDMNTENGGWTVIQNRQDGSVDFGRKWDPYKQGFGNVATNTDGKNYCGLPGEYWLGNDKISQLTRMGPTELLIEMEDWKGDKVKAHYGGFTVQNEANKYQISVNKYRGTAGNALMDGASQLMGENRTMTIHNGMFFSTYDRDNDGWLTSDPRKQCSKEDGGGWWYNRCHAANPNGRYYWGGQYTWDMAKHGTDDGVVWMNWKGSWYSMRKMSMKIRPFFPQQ
T1 chain 3: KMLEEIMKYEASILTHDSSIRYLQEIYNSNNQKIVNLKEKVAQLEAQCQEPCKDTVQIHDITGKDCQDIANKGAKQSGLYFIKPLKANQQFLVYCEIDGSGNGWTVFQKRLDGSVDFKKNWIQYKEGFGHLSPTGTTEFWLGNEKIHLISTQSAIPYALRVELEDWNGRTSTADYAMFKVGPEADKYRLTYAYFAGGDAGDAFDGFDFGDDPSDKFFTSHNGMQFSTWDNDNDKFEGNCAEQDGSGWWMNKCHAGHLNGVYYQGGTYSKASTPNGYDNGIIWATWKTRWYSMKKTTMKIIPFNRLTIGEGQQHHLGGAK
T1 chain 4: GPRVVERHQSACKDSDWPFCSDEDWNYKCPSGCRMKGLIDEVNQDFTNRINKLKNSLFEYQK
T1 chain 5: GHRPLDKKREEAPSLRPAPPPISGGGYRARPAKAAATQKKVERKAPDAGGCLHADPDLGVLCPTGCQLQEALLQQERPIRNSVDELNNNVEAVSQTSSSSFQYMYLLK
T1 chain 6: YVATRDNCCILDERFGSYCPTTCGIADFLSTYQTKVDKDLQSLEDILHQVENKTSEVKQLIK


Legend:
DD(E) fragment of fibrin [1] = experiment: affinity to DD(E) fragment of fibrin
DD(E) fragment of fibrin [2] = target: T1, DD(E) fragment of fibrin; experiment: affinity to DD(E) fragment of fibrin

Kd (DD(E) fragment of fibrin [1]) | Kd (DD(E) fragment of fibrin [2]) | Binder
< 500 nM | – | FHC[Hyp][Tyr(3-I)]DLC[Dht]I (disulfide 3-8 (inferred); reading uncertain; also: printed as F-H-C-Hyp-Y(3-I)-D-L-C-Dht-I) [F-H-C-Hyp-Y(3-I)-D-L-C-Dht-I]
< 300 nM | – | F[dE]C[Hyp][Tyr(3-Cl)]GLCWIQ (disulfide 3-8 (inferred)) [F-(D-E)-C-Hyp-Y(3-Cl)-G-L-C-W-I-Q]
– | ≤ 500 nM | FHC[Hyp][Tyr(3-Cl)]FLCHIL (disulfide 3-8 (inferred)) [F-H-C-Hyp-Y(3-Cl)-F-L-C-H-I-L]
– | ≤ 200 nM | YEC[Hyp][Tyr(3-Cl)]GLCYIQ (disulfide 3-8 (inferred)) [Y-E-C-Hyp-Y(3-Cl)-G-L-C-Y-I-Q]
< 100 nM | – | Y[dE]C[Hyp][Tyr(3-Cl)]GLCWIQ (disulfide 3-8 (inferred)) [Y-(D-E)-C-Hyp-Y(3-Cl)-G-L-C-W-I-Q]
< 400 nM | – | FHC[Hyp][Tyr(3-I)]DLC[Bpa]I (disulfide 3-8 (inferred)) [F-H-C-Hyp-Y(3-I)-D-L-C-Bpa-I]
– | ≤ 300 nM | WEC[Hyp][Tyr(3-Cl)]GLCYIQ (disulfide 3-8 (inferred)) [W-E-C-Hyp-Y(3-Cl)-G-L-C-Y-I-Q]
< 100 nM | – | FHC[Hyp][Tyr(3-F)]DLCHIL (disulfide 3-8 (inferred)) [F-H-C-Hyp-Y(3-F)-D-L-C-H-I-L]
– | ≤ 200 nM | H[dE]C[Hyp][Tyr(3-Cl)]GLCWIQ (disulfide 3-8 (inferred)) [H-(D-E)-C-Hyp-Y(3-Cl)-G-L-C-W-I-Q]
< 500 nM | – | FHC[Hyp][Tyr(3-I)]DLC[2Pal]I (disulfide 3-8 (inferred)) [F-H-C-Hyp-Y(3-I)-D-L-C-2Pal-I]
< 200 nM | – | FHC[Hyp][Tyr(3-I)]DLCH[nVal] (disulfide 3-8 (inferred)) [F-H-C-Hyp-Y(3-I)-D-L-C-H-nVal]
< 200 nM | – | [dF][dE]C[Hyp][Tyr(3-Cl)]GLCWIQ (disulfide 3-8 (inferred)) [(D-F)-(D-E)-C-Hyp-Y(3-Cl)-G-L-C-W-I-Q]
< 200 nM | – | [Tyr(26-Me)]HC[Hyp][Tyr(3-I)]DLCHI (disulfide 3-8 (inferred)) [Y(26-Me)-H-C-Hyp-Y(3-I)-D-L-C-H-I]
< 10000 nM | – | LPCDYYGTC[NDecylGly][dD] (not fully specified; cysteine pairing not given here) [L-P-C-D-Y-Y-G-T-C-n(Decyl)G-dD]
< 100 nM | – | [Phe(F5)]HC[Hyp][Tyr(3-I)]DLCHI (disulfide 3-8 (inferred)) [F(F5)-H-C-Hyp-Y(3-I)-D-L-C-H-I]

Further lines, the binder ahead of its results:

Binder | Kd (DD(E) fragment of fibrin [1]) | Kd (DD(E) fragment of fibrin [2])
FEC[Hyp][Tyr(3-Cl)]GLCWIQ (disulfide 3-8 (inferred)) [F-E-C-Hyp-Y(3-Cl)-G-L-C-W-I-Q] | < 500 nM | –
LPCDYYGTC[NDecylGly]D (not fully specified; cysteine pairing not given here) [L-P-C-D-Y-Y-G-T-C-n(Decyl)G-D] | < 10000 nM | –
YEC[Hyp][Tyr(3-Cl)]GLCWIQ (disulfide 3-8 (inferred)) [Y-E-C-Hyp-Y(3-Cl)-G-L-C-W-I-Q] | < 300 nM | –
FHCPYDLCHIL (disulfide 3-8 (inferred)) [F-H-C-P-Y-D-L-C-H-I-L] | < 300 nM | –
WEC[Hyp][Tyr(3-Cl)]GLCFIQ (disulfide 3-8 (inferred)) [W-E-C-Hyp-Y(3-Cl)-G-L-C-F-I-Q] | – | ≤ 200 nM
FHC[Hyp]YDLCH[Bpa] (disulfide 3-8 (inferred)) [F-H-C-Hyp-Y-D-L-C-H-Bpa] | < 300 nM | –
[Ad]HC[Hyp][Tyr(3-I)]DLCHI (disulfide 3-8 (inferred)) [Ad-H-C-Hyp-Y(3-I)-D-L-C-H-I] | < 400 nM | –
[hPhe]HC[Hyp]YDLCHIL (disulfide 3-8 (inferred)) [Hfe-H-C-Hyp-Y-D-L-C-H-I-L] | < 500 nM | –
T[dE]C[Hyp][Tyr(3-Cl)]GLCWIQ (disulfide 3-8 (inferred)) [T-(D-E)-C-Hyp-Y(3-Cl)-G-L-C-W-I-Q] | – | ≤ 200 nM
[Ser(Bzl)]HCPYDLCHIL (disulfide 3-8 (inferred)) [S(Bzl)-H-C-P-Y-D-L-C-H-I-L] | – | ≤ 400 nM
LPCDYYGTC[MeL][Inp] (cysteine pairing not given here) [L-P-C-D-Y-Y-G-T-C-MeL-Inp] | < 10000 nM | –
FHC[Hyp][Tyr(3-I)]DLC[4Pal]I (disulfide 3-8 (inferred)) [F-H-C-Hyp-Y(3-I)-D-L-C-4Pal-I] | < 200 nM | –
FHC[Hyp][Tyr(3-I)]DLC[Taz]I (disulfide 3-8 (inferred); reading uncertain; also: printed as F-H-C-Hyp-Y(3-I)-D-L-C-Taz-I) [F-H-C-Hyp-Y(3-I)-D-L-C-Taz-I] | < 500 nM | –
[Phe(4-OMe)]HC[Hyp][Tyr(3-I)]DLCHIL (disulfide 3-8 (inferred)) [F(4-OMe)-H-C-Hyp-Y(3-I)-D-L-C-H-I-L] | < 100 nM | –
FHC[Hyp]YDLCHIL (disulfide 3-8 (inferred)) [F-H-C-Hyp-Y-D-L-C-H-I-L] | < 500 nM | –
[Tyr(3-Cl)]HC[Hyp][Tyr(3-I)]DLCHI (disulfide 3-8 (inferred)) [Y(3-Cl)-H-C-Hyp-Y(3-I)-D-L-C-H-I] | < 100 nM | –
WEC[Hyp][Tyr(3-Cl)]GLCHIQ (disulfide 3-8 (inferred)) [W-E-C-Hyp-Y(3-Cl)-G-L-C-H-I-Q] | – | ≤ 200 nM
FHCP[Tyr(3-Cl)]DLCHIL (disulfide 3-8 (inferred)) [F-H-C-P-Y(3-Cl)-D-L-C-H-I-L] | < 200 nM | –
WECPYGLCWIQ (disulfide 3-8 (inferred)) [W-E-C-P-Y-G-L-C-W-I-Q] | < 200 nM | –
FHC[Hyp][Tyr(3-I)]DLCH[Phe(3-OMe)] (disulfide 3-8 (inferred)) [F-H-C-Hyp-Y(3-I)-D-L-C-H-F(3-OMe)] | < 100 nM | –
[Phe(4-OMe)]HC[Hyp]YDLCHIL (disulfide 3-8 (inferred)) [F(4-OMe)-H-C-Hyp-Y-D-L-C-H-I-L] | < 400 nM | –
FHC[Hyp][Tyr(3-I)]DLCH[Phg] (disulfide 3-8 (inferred)) [F-H-C-Hyp-Y(3-I)-D-L-C-H-Phg] | < 200 nM | –
S[dE]C[Hyp][Tyr(3-Cl)]GLCWIQ (disulfide 3-8 (inferred)) [S-(D-E)-C-Hyp-Y(3-Cl)-G-L-C-W-I-Q] | – | ≤ 200 nM
[Gu]HC[Hyp][Tyr(3-I)]DLCHI (disulfide 3-8 (inferred)) [Gu-H-C-Hyp-Y(3-I)-D-L-C-H-I] | < 500 nM | –
FHC[Hyp][Tyr(3-Cl)]GLCHIL (disulfide 3-8 (inferred)) [F-H-C-Hyp-Y(3-Cl)-G-L-C-H-I-L] | – | ≤ 400 nM
FHC[Hyp][Tyr(3-Cl)][2Nal]LCHIL (disulfide 3-8 (inferred)) [F-H-C-Hyp-Y(3-Cl)-(2-Nal)-L-C-H-I-L] | – | ≤ 500 nM
[Bip]HC[Hyp]YDLCHIL (disulfide 3-8 (inferred)) [Bip-H-C-Hyp-Y-D-L-C-H-I-L] | < 500 nM | –
[Phe(4-OMe)][His(Bzl)]C[Hyp][Tyr(3-Cl)]DLCH[Bpa] (disulfide 3-8 (inferred)) [F(4-OMe)-H(Bzl)-C-Hyp-Y(3-Cl)-D-L-C-H-Bpa] | < 100 nM | –
FHC[Hyp][Tyr(3-I)]DLCH[Phe(3-Me)] (disulfide 3-8 (inferred)) [F-H-C-Hyp-Y(3-I)-D-L-C-H-F(3-Me)] | < 200 nM | –
HEC[Hyp][Tyr(3-Cl)]GLCHIQ (disulfide 3-8 (inferred)) [H-E-C-Hyp-Y(3-Cl)-G-L-C-H-I-Q] | – | ≤ 400 nM
